Data from patent publication US20170291954A1.

Target: mesothelin on K562.meso cells (erythroblast cell line stably expressing mesothelin)
Test: cell-based or functional assay

SS1 chimeric antigen receptor (mesothelin specific) on transduced T cells
CAR-T cell cytolysis at an Effector:target cell ratio of 10:1 (Cr51 release), K562meso: 95%
